Measured values published in publication PMC4814874.

Assays:
[1] = target: MART1 peptide on HLA-A*02:01 (human); experiment: structural avidity; Jurkat 76/CD8; graded A2/MART1 multimer; full-length, on cells
[2] = target: MART1 peptide on HLA-A*02:01 (human); experiment: IL-2 ELISPOT; Jurkat 76 without CD8; T2 + graded peptide; full-length, on cells
[3] = target: MART1 peptide on HLA-A*02:01 (human); experiment: structural avidity; Jurkat 76 without CD8; graded A2/MART1 multimer; full-length, on cells
[4] = target: MART1 peptide on HLA-A*02:01 (human); experiment: IL-2 ELISPOT; Jurkat 76/CD8; T2 + graded peptide; full-length, on cells

EC50 of multimer [1]: 0.013 µg/mL
EC50 of peptide [2]: 0.363 µg/mL
EC50 of multimer [3]: 0.022 µg/mL
EC50 of peptide [4]: 0.102 µg/mL
Substance: DMF5
